T1: hFcγRIIaH on hFcγRIIaH-expressing Jurkat cells (human, UniProt P12318 34-317)
T1 sequence (looked up): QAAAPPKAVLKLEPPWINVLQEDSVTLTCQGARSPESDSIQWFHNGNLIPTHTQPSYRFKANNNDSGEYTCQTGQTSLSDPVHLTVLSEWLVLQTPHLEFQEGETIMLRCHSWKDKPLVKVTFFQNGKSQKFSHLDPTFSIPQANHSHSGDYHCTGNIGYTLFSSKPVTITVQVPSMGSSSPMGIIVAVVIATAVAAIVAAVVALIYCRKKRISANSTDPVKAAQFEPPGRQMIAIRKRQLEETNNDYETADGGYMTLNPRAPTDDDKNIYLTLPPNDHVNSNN

T2: human FcγRIIa H extracellular domain (human, UniProt P12318 34-217)
T2 construct: extracellular domain; also called hFcγR IIa H
T2 sequence (looked up): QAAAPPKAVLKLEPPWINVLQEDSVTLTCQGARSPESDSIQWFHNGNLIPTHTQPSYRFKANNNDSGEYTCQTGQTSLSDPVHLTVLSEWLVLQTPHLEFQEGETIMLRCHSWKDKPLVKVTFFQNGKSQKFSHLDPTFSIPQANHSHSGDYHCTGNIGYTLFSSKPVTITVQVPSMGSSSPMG

T3: human FcγRIIb extracellular domain (human, UniProt P31994 43-217)
T3 construct: extracellular domain; also called hFcγR IIb
T3 sequence (looked up): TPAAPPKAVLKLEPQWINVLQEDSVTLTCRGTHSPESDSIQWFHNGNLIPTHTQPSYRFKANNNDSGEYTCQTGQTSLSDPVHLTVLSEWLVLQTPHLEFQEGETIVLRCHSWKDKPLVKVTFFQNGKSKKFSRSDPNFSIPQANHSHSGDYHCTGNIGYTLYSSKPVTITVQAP

T4: human FcγRIIa R extracellular domain (human, UniProt P12318 34-217)
T4 construct: extracellular domain; also called hFcγR IIa R
T4 sequence (looked up): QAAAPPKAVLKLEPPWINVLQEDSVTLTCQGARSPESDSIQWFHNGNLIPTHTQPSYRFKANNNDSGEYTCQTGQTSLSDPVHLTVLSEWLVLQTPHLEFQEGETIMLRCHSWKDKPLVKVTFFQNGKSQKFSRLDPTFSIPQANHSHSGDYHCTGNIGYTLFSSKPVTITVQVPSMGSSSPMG


Tests used:
[1] = molecular target: T1, hFcγRIIaH on hFcγRIIaH-expressing …; test: cell-based or functional assay
[2] = molecular target: hFcγRIIIaV on hFcγRIIIaV-expressing Jurkat cells (human, UniProt P08637 17-254); test: cell-based or functional assay
[3] = molecular target: T5, human FcγRIa extracellular domain (human, UniProt P12314 16-292); test: SPR Biacore 8K+; KD of G1d divided by KD of this antibody;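 further: antibodies captured on an anti-Fab-kappa streptavidin chip, soluble FcγR ectodomains flowed over, KD by steady-state fit for FcγRIIb and Langmuir kinetic model for the other receptors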
T5 construct: extracellular domain; also called hFcγR Ia; hFcγRIa
Description: (§1) The interaction between the produced antibodies and human FcγRs was analyzed using Biacore 8K+ by the method below. For the running buffer, 50 mM Na-Phosphate, 150 mM NaCl, and 0.05% Tween20 (pH 7.4) was used, and measurement was performed at 25° C. The sensor chip used was a Series S SA chip (GE Healthcare) onto which CaptureSelect Human Fab-kappa Kinetics Biotin Conjugate (Thermo Fisher Scientific) was immobilized. An antibody of interest was captured onto this chip, and each FcγR diluted with the running buffer was allowed to interact with it. The chip was regenerated using 10 mM Glycine-HCl (pH 1.5), and repeatedly used to capture antibodies and perform measurement. The dissociation constants KD (mol/L) of each antibody for FcγRs were calculated using Biacore Insight Evaluation Software, with a steady state affinity model for the dissociation constant for FcγRIIb and a 1:1 Langmuir binding model for the dissociation constants for the other FcγRs (Table 48).

[4] = molecular target: T2, human FcγRIIa H extracellular domain; test: as above
Description: as §1

[5] = molecular target: T3, human FcγRIIb extracellular domain; test: as above
Description: as §1

[6] = molecular target: T4, human FcγRIIa R extracellular domain; test: as above
Description: as §1

[7] = molecular target: T6, human FcγRIIIa V extracellular domain (human, UniProt P08637 17-208); test: as above
T6 construct: extracellular domain; also called hFcγR IIIa V
Description: as §1

[8] = molecular target: T7, human FcγRIIIa F extracellular domain (human, UniProt P08637 17-208); test: as above
T7 construct: extracellular domain; also called hFcγR IIIa F
Description: as §1

[9] = molecular target: T3, human FcγRIIb extracellular domain; test: SPR Biacore 8K+, antibody captured, FcγR as analyte, steady state affinity model
[10] = molecular target: T5, human FcγRIa extracellular domain; test: SPR Biacore 8K+, antibody captured, FcγR as analyte, 1:1 Langmuir model;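 further: antibodies captured on a streptavidin chip through a biotinylated anti-human Fab kappa reagent, with FcγR extracellular domains injected in pH 7.4 phosphate buffer at 25 °C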
[11] = molecular target: T2, human FcγRIIa H extracellular domain; test: as above
[12] = molecular target: T4, human FcγRIIa R extracellular domain; test: as above
[13] = molecular target: T6, human FcγRIIIa V extracellular domain; test: as above
[14] = molecular target: T7, human FcγRIIIa F extracellular domain; test: as above
[15] = molecular target: T2, human FcγRIIa H extracellular domain; test: SPR Biacore 8K+; KD for FcγRIIb divided by KD for this FcγR;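 further: antibodies captured on an anti-human Fab kappa SA chip with soluble human FcγR ectodomains flowed over, FcγRIIb KD from steady-state fit, other FcγR KD from Langmuir model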
[16] = molecular target: T4, human FcγRIIa R extracellular domain; test: as above
[17] = molecular target: T6, human FcγRIIIa V extracellular domain; test: as above
[18] = molecular target: T7, human FcγRIIIa F extracellular domain; test: as above

T7 sequence (P08637 17-208): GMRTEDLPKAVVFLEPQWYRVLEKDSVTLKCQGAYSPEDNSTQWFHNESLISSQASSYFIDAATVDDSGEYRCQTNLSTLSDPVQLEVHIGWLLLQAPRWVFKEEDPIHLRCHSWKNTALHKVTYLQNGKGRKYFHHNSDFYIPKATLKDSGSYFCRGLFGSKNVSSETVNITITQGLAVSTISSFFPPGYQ
T5 sequence (P12314 16-292): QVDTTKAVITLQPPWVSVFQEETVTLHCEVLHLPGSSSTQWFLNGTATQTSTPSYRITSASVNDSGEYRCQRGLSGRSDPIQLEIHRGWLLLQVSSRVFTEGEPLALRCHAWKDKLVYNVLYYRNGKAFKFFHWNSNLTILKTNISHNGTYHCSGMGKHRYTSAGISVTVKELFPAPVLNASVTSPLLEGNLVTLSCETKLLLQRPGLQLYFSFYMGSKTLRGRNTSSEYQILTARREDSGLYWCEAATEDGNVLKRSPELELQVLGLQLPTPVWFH
T6 sequence (P08637 17-208 F176V limits assumed): as the sequence (P08637 17-208) above, with F160V counted along it
Chain of hFcγRIIIaV on hFcγRIIIaV-expressing Jurkat cells (P08637 17-254, form in doubt): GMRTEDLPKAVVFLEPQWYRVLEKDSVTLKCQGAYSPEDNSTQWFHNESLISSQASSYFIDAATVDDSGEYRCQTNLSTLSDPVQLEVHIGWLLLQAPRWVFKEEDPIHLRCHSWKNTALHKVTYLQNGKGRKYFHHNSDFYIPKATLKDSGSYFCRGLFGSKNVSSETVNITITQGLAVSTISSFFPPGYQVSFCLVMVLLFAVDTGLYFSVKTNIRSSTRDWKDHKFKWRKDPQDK

Row | EC50 value (hFcγRIIaH ADCP Reporter Bioassay, Hepa1-6/hEREG target cells) [1] | EC50 value (hFcγRIIIaV ADCC Reporter Bioassay, Hepa1-6/hEREG target cells) [2] | Relative value to KD between G1d and hFcgRs [3] | Relative value to KD between G1d and hFcgRs [4] | Relative value to KD between G1d and hFcgRs [5] | Relative value to KD between G1d and hFcgRs [6] | Relative value to KD between G1d and hFcgRs [7] | Relative value to KD between G1d and hFcgRs [8] | Kd [9] | Kd [10] | Kd [11] | Kd [12] | Kd [13] | Kd [14] | A/I ratio (KD for FcγRIIb divided by KD for each FcγR) [15] | A/I ratio (KD for FcγRIIb divided by KD for each FcγR) [16] | A/I ratio (KD for FcγRIIb divided by KD for each FcγR) [17] | A/I ratio (KD for FcγRIIb divided by KD for each FcγR) [18] | Binder
1 | 0.0432 µg/mL | 0.000789 µg/mL | 2.9 | 6.3 | 0.9 | 3.2 | 462 | 2520 | 11700 nM | 0.0305 nM | 179 nM | 518 nM | 0.775 nM | 1.17 nM | 65.2 | 22.5 | 15000 | 9940 | H240-Kn456/L73-k0//H240-Hl446/L73-k0 (antibody, human IgG1, kappa, also called EGL-ART4; ART4) heavy 1: QDQLVQSGAEVKKPGASVKVSCKASGFNIKDTYIQWVRQAPGQGLEWMGRIDPLRKQTKYREKFEGRVTITADTSTNTAYMELSSLRSEDTAVYYCVRSGREFDYWGQGTLVTVSSASTKGPSVFPLAPSSKSTSGGTAALGCLVKDYFPEPVTVSWNSGALTSGVHTFPAVLQSSGLYSLSSVVTVPSSSLGTQTYICNVNHKPSNTKVDKKVEPKSCDKTHTCPPCPAPEFQWGPMVFLFPPKPKDVLMISRTPEVTCVVVDVSDEEPEVKFNWYVDGVEVHNAKTKPREEQYNATYRVVSVLPVLHQDWLNGKEYKCKVSNKALPMPEEKTISKAKGQPREPQVCTLPPSRDELTKNQVSLWCLVKGFYPSDIAVEWESNGQPENNYKTTPPVLDSDGSFFLYSKLTVDKSRWQQGNVFSCSVMHEALHNHYTQKSLSLSP heavy 2: QDQLVQSGAEVKKPGASVKVSCKASGFNIKDTYIQWVRQAPGQGLEWMGRIDPLRKQTKYREKFEGRVTITADTSTNTAYMELSSLRSEDTAVYYCVRSGREFDYWGQGTLVTVSSASTKGPSVFPLAPSSKSTSGGTAALGCLVKDYFPEPVTVSWNSGALTSGVHTFPAVLQSSGLYSLSSVVTVPSSSLGTQTYICNVNHKPSNTKVDKKVEPKSCDKTHTCPPCPAPELLAGPSVFLFPPKPKDVLMISRTPEVTCVVVDVSHEEPEVKFNWYVDGVEVHNAKTKPREEQYNATYRVVSVLPVLHQDWLNGKEYKCKVSNDALPMPEEETISKAKGQPREPQVYTLPPSRCELTKNQVSLSCAVKGFYPSDIAVEWESNGQPENNYKTTPPVLDSDGSFFLVSKLTVDKSRWQQGNVFSCSVMHEALHNHYTQKSLSLSP light: DIQMTQSPSSLSASVGDRVTITCRASQDIHKYIAWYQQKPGQAPRLLIQYTSTLQPGVPSRFSGSGSGTDYTFTISSLQPEDIATYYCLQYEQLRTFGGGTKVEIKRTVAAPSVFIFPPSDEQLKSGTASVVCLLNNFYPREAKVQWKVDNALQSGNSQESVTEQDSKDSTYSLSSTLTLSKADYEKHKVYACEVTHQGLSSPVTKSFNRGEC
2 | 0.0192 µg/mL | 0.0015 µg/mL | 1.2 | 118 | 3.4 | 24.1 | 322 | 987 | 2920 nM | 0.0737 nM | 9.52 nM | 68.9 nM | 1.11 nM | 3 nM | 307 | 42.4 | 2630 | 976 | H240-Kn462/L73-k0//H240-Hl445/L73-k0 (antibody, human IgG1, kappa, also called EGL-ART6; ART6) heavy 1: QDQLVQSGAEVKKPGASVKVSCKASGFNIKDTYIQWVRQAPGQGLEWMGRIDPLRKQTKYREKFEGRVTITADTSTNTAYMELSSLRSEDTAVYYCVRSGREFDYWGQGTLVTVSSASTKGPSVFPLAPSSKSTSGGTAALGCLVKDYFPEPVTVSWNSGALTSGVHTFPAVLQSSGLYSLSSVVTVPSSSLGTQTYICNVNHKPSNTKVDKKVEPKSCDKTHTCPPCPAPEFQWGPMVFLFPPKPKDVLMISRTPEVTCVVVDVSDEEPEVKFNWYVDGVEVHNAKTKPREEQYNATYRVVSVLPVLHQDWLNGKEYKCKVSNDALPAPIEKTISKAKGQPREPQVCTLPPSRDELTKNQVSLWCLVKGFYPSDIAVEWESNGQPENNYKTTPPVLDSDGSFFLYSKLTVDKSRWQQGNVFSCSVMHEALHNHYTQKSLSLSP heavy 2: QDQLVQSGAEVKKPGASVKVSCKASGFNIKDTYIQWVRQAPGQGLEWMGRIDPLRKQTKYREKFEGRVTITADTSTNTAYMELSSLRSEDTAVYYCVRSGREFDYWGQGTLVTVSSASTKGPSVFPLAPSSKSTSGGTAALGCLVKDYFPEPVTVSWNSGALTSGVHTFPAVLQSSGLYSLSSVVTVPSSSLGTQTYICNVNHKPSNTKVDKKVEPKSCDKTHTCPPCPAPELLAGPSVFLFPPKPKDVLMISRTPEVTCVVVDVSHEEPEVKFNWYVDGVEVHNAKTKPREEQYNATYRVVSVLPVLHQDWLNGKEYKCKVSNDALPKPDEETISKAKGQPREPQVYTLPPSRCELTKNQVSLSCAVKGFYPSDIAVEWESNGQPENNYKTTPPVLDSDGSFFLVSKLTVDKSRWQQGNVFSCSVMHEALHNHYTQKSLSLSP light: DIQMTQSPSSLSASVGDRVTITCRASQDIHKYIAWYQQKPGQAPRLLIQYTSTLQPGVPSRFSGSGSGTDYTFTISSLQPEDIATYYCLQYEQLRTFGGGTKVEIKRTVAAPSVFIFPPSDEQLKSGTASVVCLLNNFYPREAKVQWKVDNALQSGNSQESVTEQDSKDSTYSLSSTLTLSKADYEKHKVYACEVTHQGLSSPVTKSFNRGEC

Source: patent US20260022175A1 (Chugai, published 2026)
